Experimental data reported in patent publication US20170319711A1 (Pfizer, published 2017).

T1: human 5T4 ectodomain fused to the human IgG1-Fc domain (human, UniProt Q13641 32-355)
T1 construct: also called hu5T4; 5T4-Fc; not shown: Fc constant region from human IgG1
T1 sequence: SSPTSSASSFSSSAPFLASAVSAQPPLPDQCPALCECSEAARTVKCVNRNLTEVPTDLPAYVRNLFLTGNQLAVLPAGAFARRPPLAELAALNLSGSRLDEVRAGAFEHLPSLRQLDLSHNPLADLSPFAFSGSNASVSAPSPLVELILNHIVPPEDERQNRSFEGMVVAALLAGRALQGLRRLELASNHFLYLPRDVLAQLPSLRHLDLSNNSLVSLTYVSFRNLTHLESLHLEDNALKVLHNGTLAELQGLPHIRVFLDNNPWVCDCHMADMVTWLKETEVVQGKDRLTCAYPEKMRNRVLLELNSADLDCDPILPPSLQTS

T2: cynomolgus 5T4 ectodomain fused to the human IgG1-Fc domain (cynomolgus monkey; human, UniProt Q4R8Y9 35-355)
T2 construct: range 1-355; also called cyno5T4; not shown: Fc constant region from human IgG1
T2 sequence (looked up): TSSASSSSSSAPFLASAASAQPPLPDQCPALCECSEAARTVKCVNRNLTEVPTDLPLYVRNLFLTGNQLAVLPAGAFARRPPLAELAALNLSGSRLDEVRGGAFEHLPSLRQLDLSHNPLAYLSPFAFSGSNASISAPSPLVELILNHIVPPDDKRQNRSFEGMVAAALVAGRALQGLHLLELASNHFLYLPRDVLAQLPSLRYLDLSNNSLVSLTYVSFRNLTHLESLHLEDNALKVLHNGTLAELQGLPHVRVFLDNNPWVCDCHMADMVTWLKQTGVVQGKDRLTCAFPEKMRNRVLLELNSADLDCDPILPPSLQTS

T3: Human 5T4 antigen on cells (human, UniProt Q13641 32-420)
T3 construct: also called 5T4 oncofetal antigen
T3 sequence: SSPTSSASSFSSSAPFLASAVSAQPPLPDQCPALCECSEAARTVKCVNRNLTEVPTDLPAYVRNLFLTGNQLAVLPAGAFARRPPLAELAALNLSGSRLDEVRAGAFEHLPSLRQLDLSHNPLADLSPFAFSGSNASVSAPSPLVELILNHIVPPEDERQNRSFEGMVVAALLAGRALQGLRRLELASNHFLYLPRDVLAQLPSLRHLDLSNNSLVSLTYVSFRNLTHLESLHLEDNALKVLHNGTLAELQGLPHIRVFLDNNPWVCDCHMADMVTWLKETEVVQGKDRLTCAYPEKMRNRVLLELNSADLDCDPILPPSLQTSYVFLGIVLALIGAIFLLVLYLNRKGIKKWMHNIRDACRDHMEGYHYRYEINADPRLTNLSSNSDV

T4: mouse 5T4 (mouse, UniProt Q9Z0L0 32-361, limits assumed)
T4 sequence (looked up): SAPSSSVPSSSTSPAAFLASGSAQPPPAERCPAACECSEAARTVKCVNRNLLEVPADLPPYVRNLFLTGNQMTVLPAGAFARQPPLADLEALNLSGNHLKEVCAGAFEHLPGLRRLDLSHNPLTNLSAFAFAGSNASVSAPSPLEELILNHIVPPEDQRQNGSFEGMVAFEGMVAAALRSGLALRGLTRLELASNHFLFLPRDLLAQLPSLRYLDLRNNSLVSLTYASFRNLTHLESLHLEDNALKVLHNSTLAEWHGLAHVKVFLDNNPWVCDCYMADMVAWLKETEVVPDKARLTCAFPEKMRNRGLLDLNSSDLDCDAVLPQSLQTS


How the values were obtained:
[1] = target: T1, human 5T4 ectodomain fused to the human …; assay: SPR (BIAcore), low-density 5T4-Fc surface, pH 6.0
Procedure: (§1) Surface plasmon resonance (SPR) analysis is performed utilizing the BIAcore® to determine the affinity constants for A1-IgG1 and A1-IgG4 binding to either human or cynomolgus 5T4 at pH 6.0 and pH 7.4. BIAcore® technology utilizes changes in the refractive index at the surface layer upon binding of the huA1 antibody variants to the human 5T4 protein immobilized on the surface layer. Binding is detected by SPR of laser light refracting from the surface. Analysis of the signal kinetics on-rate and off-rate allows the discrimination between non-specific and specific interactions. The 5T4 proteins used for this analysis consisted of the human or cynomolgus 5T4 ectodomain fused to the human IgG1-Fc domain and low densities (45.1 and 45.4 RU for human and cynomolgus respectively) are immobilized onto a CM5 chip to accurately measure affinity constants.
(§2) The measurement of specific binding to the 5T4 ectodomain is attained by subtracting binding to a reference surface that had only human IgG1-Fc protein immobilized onto the CM5 chip at the same density to that on the 5T4-Fc surfaces. Next, various concentrations of A1, A1-IgG4, or A3 antibodies in either HBS-EP pH 7.4 or MES-EP pH 6.0 buffer are injected over the surface. The surface is regenerated two times with Glycine pH 1.7+0.05% Surfactant P20 (GE Healthcare, BR-1000-54) between injection cycles.

[2] = target: T2, cynomolgus 5T4 ectodomain fused to the …; assay: SPR (BIAcore), low-density 5T4-Fc surface, pH 6.0
Procedure: as §1, §2

[3] = target: T3, Human 5T4 antigen on cells; assay: flow cytometry, 10 ug/mL, MDAMD361-DYT2 cells
Procedure: (§3) Cells expressing the 5T4 antigen, and the negative control Raji cells, are plated at a density of 500,000 cells/well on non-tissue culture treated 96 well plates and kept on ice. Dilutions of the A1 and A1-IgG4 antibodies or A1-mcMMAF ADC are made in 3% bovine serum albumin BSA in Dulbecco's phosphate buffered saline (DPBS) and added to the plate at a final concentration of 10 μg/mL. The plates are then incubated on ice for 1 hour followed by 2 washes. The secondary antibody, PE (phycoerythrin) conjugated Goat Anti-Human IgG Fc is added to the wells. After 30 minutes of incubation at 4 C, the mean fluorescence intensity is then measured using a flow cytometer.

[4] = target: T3, Human 5T4 antigen on cells; assay: flow cytometry, 10 ug/mL, A431 cells
Procedure: as §3

[5] = target: T1, human 5T4 ectodomain fused to the human …; assay: SPR (BIAcore), immobilized 5T4-Fc, pH 6.0
Procedure: as §1, §2

[6] = target: T2, cynomolgus 5T4 ectodomain fused to the …; assay: SPR (BIAcore), immobilized 5T4-Fc, pH 6.0
Procedure: as §1, §2

[7] = target: T3, Human 5T4 antigen on cells; assay: flow cytometry, 10 ug/mL, MDAMB468 cells
Procedure: as §3

[8] = target: T1, human 5T4 ectodomain fused to the human …; assay: SPR (BIAcore), immobilized 5T4-Fc, pH 6.0; remark: listed apart in the source
Procedure: as §1, §2

[9] = target: T2, cynomolgus 5T4 ectodomain fused to the …; assay: SPR (BIAcore), immobilized 5T4-Fc, pH 6.0; remark: listed apart in the source
Procedure: as §1, §2

[10] = target: T3, Human 5T4 antigen on cells; assay: flow cytometry, 10 ug/mL, PC3mm2 cells
Procedure: as §3

[11] = target: T1, human 5T4 ectodomain fused to the human …; assay: SPR (BIAcore), immobilized 5T4-Fc, pH 7.4
Procedure: as §1, §2

[12] = target: T2, cynomolgus 5T4 ectodomain fused to the …; assay: SPR (BIAcore), immobilized 5T4-Fc, pH 7.4
Procedure: as §1, §2

[13] = target: T4, mouse 5T4; assay: ELISA (Example 7)
[14] = target: T1, human 5T4 ectodomain fused to the human …; assay: SPR (BIAcore), immobilized 5T4-Fc, pH 7.4; remark: listed apart in the source
Procedure: as §1, §2

[15] = target: T2, cynomolgus 5T4 ectodomain fused to the …; assay: SPR (BIAcore), immobilized 5T4-Fc, pH 7.4; remark: listed apart in the source
Procedure: as §1, §2

[16] = target: T1, human 5T4 ectodomain fused to the human …; assay: SPR (BIAcore), low-density 5T4-Fc surface, pH 7.4
Procedure: as §1, §2

[17] = target: T2, cynomolgus 5T4 ectodomain fused to the …; assay: SPR (BIAcore), low-density 5T4-Fc surface, pH 7.4
Procedure: as §1, §2

[18] = target: T2, cynomolgus 5T4 ectodomain fused to the …; assay: SPR (BIAcore), immobilized 5T4-Fc, pH not printed in this row (7.4 by the order of the table); row shifted one column to the left; pH 7.4
Procedure: as §1, §2

[19] = target: T2, cynomolgus 5T4 ectodomain fused to the …; assay: SPR (BIAcore), immobilized 5T4-Fc, pH not printed in this row (7.4 by the order of the table); row shifted one column to the left; pH 7.4 (pH cell missing; inferred from the order of the table)
Procedure: as §1, §2

| Mean Fluorescent Intensity [3] | Mean Fluorescent Intensity [4] | Kd [5] [nM] | koff [5] [s⁻¹] | kon [5] [M⁻¹ s⁻¹] | Kd [6] [nM] | koff [6] [s⁻¹] | kon [6] [M⁻¹ s⁻¹] | Mean Fluorescent Intensity [7] | Kd [8] [nM] | koff [8] [s⁻¹] | kon [8] [M⁻¹ s⁻¹] | Kd [9] [nM] | koff [9] [s⁻¹] | kon [9] [M⁻¹ s⁻¹] | Mean Fluorescent Intensity [10] | Kd [11] [nM] | koff [11] [s⁻¹] | kon [11] [M⁻¹ s⁻¹] | Kd [12] [nM] | Binder | also measured |
| --- | --- | --- | --- | --- | --- | --- | --- | --- | --- | --- | --- | --- | --- | --- | --- | --- | --- | --- | --- | --- | --- |
| 7000 | 3900 | 1.06 | 0.000459 | 431000 | 2.76 | 0.000641 | 233000 | 3500 | 1.06 | 0.000459 | 431000 | 2.76 | 0.000641 | 233000 | 3400 | 0.48 | 0.000132 | 275000 | 1.8 | A1 (a humanized anti-5T4 IgG1 antibody) (antibody, also called A1-IgG1; A1 antibody) heavy: not shown light: DIQMTQSPSSLSASVGDRVTITCKASQSVSNDVAWYQQKPGKAPKLLIYFATNRYTGVPSRFSGSGYGTDFTLTISSLQPEDFATYYCQQDYSSPWTFGQGTKVEIKRTVAAPSVFIFPPSDEQLKSGTASVVCLLNNFYPREAKVQWKVDNALQSGNSQESVTEQDSKDSTYSLSSTLTLSKADYEKHKVYACEVTHQGLSSPVTKSFNRGEC | fold higher affinity relative to A1-IgG4 [1]: 1.5 fold; fold better binding compared to A1-IgG4 [2]: 1.7 fold; koff [12]: 0.000273 s⁻¹; kon [12]: 151000 M⁻¹ s⁻¹; binding result [13]: no binding; Kd [14]: 0.48 nM; koff [14]: 0.000132 s⁻¹; kon [14]: 275000 M⁻¹ s⁻¹; Kd [15]: 1.8 nM; koff [15]: 0.000273 s⁻¹; kon [15]: 151000 M⁻¹ s⁻¹; fold higher affinity relative to A1-IgG4 [16]: 1.2 fold; fold better binding compared to A1-IgG4 [17]: 1.2 fold |
| 5500 | 2400 |  |  |  |  |  |  | 2500 | 1.43 | 0.000893 | 626000 | 4.7 | 0.00095 | 202000 | 2100 | 0.52 | 0.000172 | 328000 | 2.11 | A1-IgG4 (a humanized anti-5T4 IgG4 antibody) (antibody, Same variable domains as A1, human IgG4m heavy chain; also called A1-IgG4 Ab; Humanized A1 human IgG4m) heavy: not shown light: DIQMTQSPSSLSASVGDRVTITCKASQSVSNDVAWYQQKPGKAPKLLIYFATNRYTGVPSRFSGSGYGTDFTLTISSLQPEDFATYYCQQDYSSPWTFGQGTKVEIKRTVAAPSVFIFPPSDEQLKSGTASVVCLLNNFYPREAKVQWKVDNALQSGNSQESVTEQDSKDSTYSLSSTLTLSKADYEKHKVYACEVTHQGLSSPVTKSFNRGEC | koff [12]: 0.000382 s⁻¹; kon [12]: 181000 M⁻¹ s⁻¹ |
|  |  | 0.12 | 4.17e-05 | 351000 | 0.41 | 0.000187 | 458000 |  |  |  |  |  |  |  |  |  |  |  |  | A3 (a mouse/human chimeric antibody) (antibody, human IgG1, kappa, V domains shown, also called Chimeric A3; muA3-huIgG1) VH: EVQLVESGGGLVQPKGSLKLSCAASGFTFNTYAMNWVRQAPGKGLEWVARIRSKSNNYATYYADSVKDRFTISRDDSQSMLYLQMNNLKTEDTAMYYCVRQWDYDVRAMNYWGQGTLVTVSS VL: DIVMTQSHIFMSTSVGDRVSITCKASQDVDTAVAWYQQKPGQSPKLLIYWASTRLTGVPDRFTGSGSGTDFTLTISNVQSEDLADYFCQQYSSYPYTFGQGTKLEIKR | Kd [18]: 0.82 nM; koff [18]: 0.000162 s⁻¹; binding result [13]: no binding; kon [19]: 198000 M⁻¹ s⁻¹; Kd [14]: 0.17 nM; koff [14]: 3.06e-05 s⁻¹; kon [14]: 179000 M⁻¹ s⁻¹ |
